This note sets out measurements from US20240270821A1, “GIP/GLP1/GCG TRI-RECEPTOR AGONISTS AND USES THEREOF” (priority 2023, published 2024).

Changes are numbered by the printed parent chain.

Common to all, as to assay: cell-based or functional assay
Assay [1] concerns the target human glucagon receptor (human) (UniProt P47871).
For assay [2], the target named is T1, human GIP receptor (human) (UniProt P48546).
T1 sequence (looked up): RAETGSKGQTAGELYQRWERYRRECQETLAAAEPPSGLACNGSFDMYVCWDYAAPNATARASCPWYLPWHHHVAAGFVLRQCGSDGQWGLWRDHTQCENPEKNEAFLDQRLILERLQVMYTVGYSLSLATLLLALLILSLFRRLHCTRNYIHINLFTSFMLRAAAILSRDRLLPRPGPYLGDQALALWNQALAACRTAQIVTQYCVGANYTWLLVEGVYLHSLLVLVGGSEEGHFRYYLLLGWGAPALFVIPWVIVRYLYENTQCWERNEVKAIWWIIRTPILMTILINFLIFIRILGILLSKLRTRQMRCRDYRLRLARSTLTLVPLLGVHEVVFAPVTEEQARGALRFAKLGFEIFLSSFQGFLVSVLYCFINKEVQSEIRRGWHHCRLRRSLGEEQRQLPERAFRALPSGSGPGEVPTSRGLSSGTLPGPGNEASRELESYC

In assay [3] the target is hGLP-1R (Homo sapiens, UniProt P43220).
Chain of hGLP-1R (P43220 24-463): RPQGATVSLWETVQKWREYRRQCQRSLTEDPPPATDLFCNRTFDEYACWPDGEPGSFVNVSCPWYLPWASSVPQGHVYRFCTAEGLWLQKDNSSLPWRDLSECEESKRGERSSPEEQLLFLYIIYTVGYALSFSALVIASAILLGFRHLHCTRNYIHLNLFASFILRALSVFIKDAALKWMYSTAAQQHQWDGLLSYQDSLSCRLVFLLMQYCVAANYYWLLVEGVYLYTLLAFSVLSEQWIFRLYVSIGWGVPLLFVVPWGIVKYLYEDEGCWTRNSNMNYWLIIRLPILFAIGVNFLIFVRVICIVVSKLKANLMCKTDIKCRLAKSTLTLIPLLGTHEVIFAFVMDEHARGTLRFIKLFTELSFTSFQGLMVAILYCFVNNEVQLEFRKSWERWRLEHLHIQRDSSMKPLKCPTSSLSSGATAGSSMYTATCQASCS

Chain of human glucagon receptor (human) (P47871 26-477): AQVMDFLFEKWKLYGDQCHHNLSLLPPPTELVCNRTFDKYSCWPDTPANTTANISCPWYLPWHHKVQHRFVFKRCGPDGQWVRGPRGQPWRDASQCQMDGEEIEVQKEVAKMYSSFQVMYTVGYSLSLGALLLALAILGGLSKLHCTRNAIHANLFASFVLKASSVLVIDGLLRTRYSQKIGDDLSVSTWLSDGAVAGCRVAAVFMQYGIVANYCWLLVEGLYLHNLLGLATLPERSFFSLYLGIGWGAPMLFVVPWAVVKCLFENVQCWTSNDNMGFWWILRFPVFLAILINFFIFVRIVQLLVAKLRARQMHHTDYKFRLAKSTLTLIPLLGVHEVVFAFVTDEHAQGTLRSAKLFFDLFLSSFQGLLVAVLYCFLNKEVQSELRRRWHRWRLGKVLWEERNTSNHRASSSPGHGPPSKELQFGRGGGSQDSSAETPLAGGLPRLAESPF

B1: Example 1236 (peptide)
chain: YXQGTXTSDXSIXLDXKAAXAFIEXLLEGGPSSGEPPPS
modifications: synthetic construct; SITE 2: note = 2-Aminoisobutyric Acid; SITE 6: note = alpha-methyl-2-fluoro-L-phenylalanine; SITE 10: note = 3-(4-Pyridyl)-L-alanine; SITE 13: note = alpha-methyl-leucine; SITE 16: note = L-ornithine; SITE 17: note = Lysine is chemically modified through conjugation of the epsil
Turning to B1, the Relative cAMP EC50 in assay [1] was 0.947 nM; in assay [2] it was 0.052 nM; in assay [3], 0.304 nM. Also, the results for the cAMP Rel EC50 (1% HSA) in assay [1], in assay [2] and in assay [3] were 502 nM, 11.9 nM and 95.8 nM, respectively.

B2: Example 123 (peptide)
chain: YXQGTFTSDFSXXLDKKAQXAFIEWLLEGGESSGEPPPSGE
modifications: synthetic construct; SITE 2: note = 2-Aminoisobutyric Acid; SITE 12: note = L-ornithine; SITE 13: note = alpha-methyl-leucine; SITE 17: note = Lysine is chemically modified through conjugation of the epsilon-amino group of the Lysine side chain with (2-[2-(2-Amino-ethoxy)-ethoxy]-acetyl)-(gamma-Glu)
B2: the Relative cAMP EC50 in assay [1] came out at 4.55 nM; in assay [2] it was 0.531 nM; in assay [3], 4.82 nM. Moreover, the cAMP Rel EC50, nM (in the presence of 1% HSA) stood at 1740 nM in assay [1], 94.6 nM in assay [2] and 1500 nM in assay [3].

B3: Example 124 (peptide)
chain: B2 chain with E31H
modifications: synthetic construct; SITE 2: note = 2-Aminoisobutyric Acid; SITE 12: note = L-ornithine; SITE 13: note = alpha-methyl-leucine; SITE 17: note = Lysine is chemically modified through conjugation of the epsilon-amino group of the Lysine side chain with (2-[2-(2-Amino-ethoxy)-ethoxy]-acetyl)-(gamma-Glu)
For B3, the Relative cAMP EC50 in assay [1] amounted to 2.92 nM; in assay [2] it was 0.344 nM; in assay [3], 6.14 nM. Further, the cAMP Rel EC50, nM (in the presence of 1% HSA) in assay [1] turned out to be 567 nM; in assay [2] it was 54.7 nM; in assay [3], 801 nM.

B4: Example 128 (peptide)
chain: B2 chain with W25Y, G29A, E31P, E35A
modifications: synthetic construct; SITE 2: note = 2-Aminoisobutyric Acid; SITE 12: note = L-ornithine; SITE 13: note = alpha-methyl-leucine; SITE 17: note = Lysine is chemically modified through conjugation of the epsilon-amino group of the Lysine side chain with (2-[2-(2-Amino-ethoxy)-ethoxy]-acetyl)2-(gamma-Glu)
For B4, the Relative cAMP EC50 amounted to 6.76 nM in assay [1], 0.307 nM in assay [2] and 3.5 nM in assay [3]. Further, the cAMP Rel EC50, nM (in the presence of 1% HSA) in assay [1] came out at 1090 nM; in assay [2], 24.3 nM; in assay [3], 679 nM.

B5: Example 9 (peptide)
chain: YXQGTFTSDFSKXLDKKAQXAFIEYLLAGGPSSGEPPPGGS
modifications: Aib, αMeL; acylated Lys; C-terminal amide; synthetic construct; SITE 2: note = 2-Aminoisobutyric Acid; SITE 13: note = alpha-methyl-leucine; SITE 17: note = Lysine is chemically modified through conjugation of the epsilon-amino group of the Lysine side chain with (2-[2-(2-Amino-ethoxy)-ethoxy]-acetyl)-(gamma-Glu)-CO-(CH2) 18-CO2H; SITE 20: n
B5: the Relative cAMP EC50 in assay [1] came to 7.19 nM; in assay [2] it was 0.205 nM; in assay [3] it was 1.61 nM. Besides, the results for the cAMP Rel EC50 (in the presence of 1% HSA) in assay [1], in assay [2] and in assay [3] were 1430 nM, 41.8 nM and 402 nM, respectively.

B6: Example 20 (peptide)
chain: B5 chain with Y25W, G39S, G40E, S41G
modifications: non-natural residues, acyl lysine, C-terminal amide; synthetic construct; SITE 2: note = 2-Aminoisobutyric Acid; SITE 13: note = alpha-methyl-leucine; SITE 17: note = Lysine is chemically modified through conjugation of the epsilon-amino group of the Lysine side chain with (2-[2-(2-Amino-ethoxy)-ethoxy]-acetyl)-(gamma-Glu)-CO-(CH2) 18-CO2H; SITE 20: n
In the case of B6, the Relative cAMP EC50 was 15.4 nM in assay [1], 0.381 nM in assay [2] and 2.45 nM in assay [3]. Moreover, the cAMP Rel EC50 (in the presence of 1% HSA) was 587 nM in assay [1], 42.3 nM in assay [2] and 326 nM in assay [3].

B7: Example 25 (peptide)
chain: B5 chain with G39S, G40E, S41G
modifications: Aib, αMeL, acylated Lys, C-terminal amide; synthetic construct; SITE 2: note = 2-Aminoisobutyric Acid; SITE 13: note = alpha-methyl-leucine; SITE 17: note = Lysine is chemically modified through conjugation of the epsilon-amino group of the Lysine side chain with (2-[2-(2-Amino-ethoxy)-ethoxy]-acetyl)2-(gamma-Glu)-CO-(CH2 )16-CO2H; SITE 20:
Consider B7, for which the Relative cAMP EC50 in assay [1] is 6.8 nM; in assay [2] it was 0.128 nM; in assay [3], 3.34 nM. The cAMP Rel EC50 (in the presence of 1% HSA) was 939 nM in assay [1], 19.8 nM in assay [2] and 520 nM in assay [3].

B8: Example 127 (peptide)
chain: B2 chain with E31H, S39E, E41S
modifications: synthetic construct; SITE 2: note = 2-Aminoisobutyric Acid; SITE 12: note = L-ornithine; SITE 13: note = alpha-methyl-leucine; SITE 17: note = Lysine is chemically modified through conjugation of the epsilon-amino group of the Lysine side chain with (2-[2-(2-Amino-ethoxy)-ethoxy]-acetyl)-(gamma-Glu)
In the case of B8, the Relative cAMP EC50 in assay [1] was determined as 4.35 nM; in assay [2] it was 0.312 nM; in assay [3] it was 4.8 nM. For the same molecule, the values for the cAMP Rel EC50, nM (in the presence of 1% HSA) in assay [1], in assay [2] and in assay [3] were 1010 nM, 62.9 nM and 1000 nM, respectively.

B9: Example 130 (peptide)
chain: B5 chain with K12X, A28E, E35A, G39E
modifications: synthetic construct; SITE 2: note = 2-Aminoisobutyric Acid; SITE 12: note = L-ornithine; SITE 13: note = alpha-methyl-leucine; SITE 17: note = Lysine is chemically modified through conjugation of the epsilon-amino group of the Lysine side chain with (2-[2-(2-Amino-ethoxy)-ethoxy]-acetyl)-(gamma-Glu)
Turning to B9, the Relative cAMP EC50 in assay [1] worked out at 3.74 nM; in assay [2], 0.411 nM; in assay [3], 4.29 nM. In addition, the cAMP Rel EC50, nM (in the presence of 1% HSA) in assay [1] was determined as 1080 nM; in assay [2] it was 60.5 nM; in assay [3], 865 nM.

B10: Example 152 (peptide)
chain: B5 chain with K12X, G39E
modifications: Aib, Orn, αMeL; acylated Lys (AEEA-γGlu-C18 diacid); C-terminal amide; synthetic construct; SITE 2: note = 2-Aminoisobutyric Acid; SITE 12: note = L-ornithine; SITE 13: note = alpha-methyl-leucine; SITE 17: note = Lysine is chemically modified through conjugation of the epsilon-amino group of the Lysine side chain with (2-[2-(2-Amino-ethoxy)-ethoxy]-acetyl)-(gamma-Glu)
In the case of B10, the Relative cAMP EC50, nM (0.1% casein) amounted to 6.91 nM in assay [1], 0.259 nM in assay [2] and 4.03 nM in assay [3]. Moreover, the cAMP Rel EC50, nM (1% HSA) in assay [1] was 1090 nM; in assay [2] it was 23.2 nM; in assay [3], 491 nM.

B11: Example 150 (peptide)
chain: B5 chain with K12Q, A28E, E35A, G39S
modifications: Aib, αMeL; lipidated Lys; C-terminal amide; synthetic construct; SITE 2: note = 2-Aminoisobutyric Acid; SITE 13: note = alpha-methyl-leucine; SITE 17: note = Lysine is chemically modified through conjugation of the epsilon-amino group of the Lysine side chain with (2-[2-(2-Amino-ethoxy)-ethoxy]-acetyl)-(gamma-Glu)-CO-(CH2) 16-CO2H; SITE 20: n
Take B11: the Relative cAMP EC50, nM (0.1% casein) was determined as 5.37 nM in assay [1], 0.346 nM in assay [2] and 2.63 nM in assay [3]. The cAMP Rel EC50, nM (1% HSA) in assay [1] stood at 1920 nM; in assay [2], 50.6 nM; in assay [3] it was 463 nM.
